From a protein production outcome set (Wang et al. 2014)

Test: label from the status in PepcDB records

Sequence	protein production
MAKVNITRDLIRRQIKERGALSFERRYHVTDPFIRRLGLEAELQGHSGCVNCLEWNEKGDLLASGSDDQHTIVWDPLHHKKLLSMHTGHTANIFSVKFLPHAGDRILITGAADSKVHVHDLTVKETIHMFGDHTNRVKRIATAPMWPNTFWSAAEDGLIRQYDLRENSKHSEVLIDLTEYCGQLVEAKCLTVNPQDNNCLAVGASGPFVRLYDIRMIHNHRKSMKQSPSAGVHTFCDRQKPLPDGAAQYYVAGHLPVKLPDYNNRLRVLVATYVTFSPNGTELLVNMGGEQVYLFDLTYKQRPYTFLLPRKCHSSGEVQNGKMSTNGVSNGVSNGLHLHSNGFRLPESRGHVSPQVELPPYLERVKQQANEAFACQQWTQAIQLYSKAVQRAPHNAMLYGNRAAAYMKRKWDGDHYDALRDCLKAISLNPCHLKAHFRLARCLFELKYVAEALECLDDFKGKFPEQAHSSACDALGRDITAALFSKNDGEEKKGPGGGAPVRLRSTSRKDSISEDEMVLRERSYDYQFRYCGHCNTTTDIKEANFFGSNAQYIVSGSDDGSFFIWEKETTNLVRVLQGDESIVNCLQPHPSYCFLATSGIDPVVRLWNPRPESEDLTGRVVEDMEGASQANQRRMNADPLEVMLLNMGYRITGLSSGGAGASDDEDSSEGQVQCRPS	failed
MAKVTERYDVTWEEMRDKMRKWREENSRNSEQIMEVGEELINDYASKLGDDIWIIYEQVMIAALDYGRDDLALFCLQELRRQFPGSHRVKRLTGMRFEAMERYDDAIQLYDRILQEDPTNTAARKRKIAIRKAQGKTVEAIRELNEYLEQFVGDQEAWHELAELYINEHDYAKAAFCLEELMMTNPHNHLYCQQYAEVKYTQGGLENLELSRKYFAQALKLNNRNMRALFGLYMSASHIASNPKASAKMKKDNIKYASWAANQINRAYQFAGRSKKETKYSLKAVEDMLETLQITQS	failed
MALARANSPQEALLWALNDLEENSFKTLKFHLRDVTQFHLARGELESLSQVDLASKLISMYGAQEAVRVVSRSLLAMNLMELVDYLNQVCLNDYREIYREHV	not failed
MALDLNDVALFVQVVRSGSFAQAARHLGMPSNTVSRKVQQLEIQLGTRLLHRSTRKLVLTQAGEDFHERCVGAVDGLMDAAEQLVSGREEPGGRLRIAAMADFFDFFSMEWVADFLAEYPRVQLEFVLSDERADLIADRLDIAFRGGPLQDSGYVGRQLIEEGHDTMVASPAYIAAHGMPDSLQSLHGHYCVSTAHPGGSTVWRLLGPDAKMHEVQMASRFNANTAQALRKATLAGLGIALLPATLIRSDLRDGRLVPVLTQYQRTSHGLHVLYPSRQHLPPAVSAFIALVMEKLRDKAFAAQ	failed
MALEIKILDYGDIELESSFLVLGRDCGRTRRVLTLGFLILGGKYPVVVDTGYRSNQIMETLGMRGLQYHEHMIENQLARHGVRMGDVRFVCHTHLHIDHAGKDDLFPMNTTVVLNRKELEYSVSGLMHPQYPAPDIKHLIDRLHTKSALRFLDLEITGPIELMPGVYCDAANAHTEGSMNIIVETADGIATICGDVIYDFNDQIVTPFNEIHDWEPRTTGNHGTSKRAEKASIKKLLSNSRYLLPVHDRPAKIEGGMVVGRLHDQVPGPIVQSLPPRNWFPA	failed
MALFIPTRLVSALALVGVSGLMLGCGSSGGGSNGTTASSAKAASSTPVAISSVAASSTAAVAGNIKLNQLGFLPESAKWAVVPAGVAASFTVINATTNAEVFSGNLSVAATWSASEESVKLADFSSVKTPGDYLLRVEGVNDSYPFTIANDVYSALTAASIKAFYFNRNSAELLATHAGMFARPPGHPDTQVLVHVSAASAARPAGTIISSPKGWYDAGDYNKYIVNSGIATYSLLAAYEHFPDIFNGQNLNIPESGDALPDLLNETLWNLEWMLSMQDPNDGGVYHKLTNKNFDGTVMPHQATSERYVVQKTTAAALDFAAVMATASRVVAQYESQLPGMSAKMLAAAESAWNWAVANPAITYKQPDDIKTGEYGDGNLADEFFWAAAELYITSKKDAYYTAMKPTETVATVPSWGDVRSLGWISLAHHRDNLTAVADKQLIANRIDGLAANLQSVWATSAYRVTMQKNDFVWGSNSVALGQAMMLVQGYRLNGKREYLDAAQAMLDYVLGRNATDMSFVTGYGDKSTLHPHHRPSEADGIVEPIPGFIAGGPQPGQQDKSGCSVSYPSNIAAKSYLDNWCSYASNEIAINWNAPLVYVSAAIQALTPK	failed
MALHPTDYFRKERIFVDRETCIDNFRRFIQNSNNQDYNALFYYGIAGIGKSKLQHKLQNILNTEYPEMLWVSMDLENDTHRNVSTFLIALRNKIQKKCNVRFYKFNLAHAIFSKKSRPDIPLNKETYPMLKEDGFFYEILNSLNETAFGPFISIPVKRIVDIINQAPGNVRRHFGELPIDINKLESMEAHEIEKKLPGIFAADFTGSLGTNSRACIFIDTYEAIWKGWRGIGSFSEKDKWIRKCLIPNMPGVSWVICGRKQIKSLWIKDEQDWEMCMKEYPIEDLPEEYSEQFLKEYIEEEDIRSVIVKASEGVPCYLNLSVDTYEQVSRIKKPEVKDFPNTKIEVFEKFVKYLDNNEKRTLYILSAPNSWDRNLFKKLINEFNPTYSIYEFSDLIKYSFVKKITDEKFSLHQLMRKNLQEYQDPTYRKDVHLFLHEYYSNKIKDVDVRSITQEHEISLIEAYYHAREVLKFEDLGGWIAKYTEPFNEAGYWKTIYPMIEDFAEILKEKFGPDNIYYGIFVRKLAFLNEDRGKYNEAIFYYQQVLKIFEKNMGKKILENNDLVVDDHSIAMVTNDLANCYLSIGEYEKALTLQQNSLKTVQNKVNKDPLYIALLQQNIALTYQYLGQYNKAMELCQEALTVREACLGEEDLEVAKTAENLAVIHQQLGNYKEAFALAKRALNIREKKLGSKHPLVATNLSSLGVLCIIMGNLEEGLKYNQRAVKIAEERFEGDHISVAETLSNLGATYQYMLRYDDALEAYQRALNITEHSLGLENPKLVNILNNIAETYRKMENYEKALEFYQRALDIARNHLGKEHPTIALIMNNLGRLYMNTKEFDKAHTICQQALDIRGKTLGTDHVDFAITSLDLGIIYGCVGRRDYALPLLEHSLRIFEQKLGSDHIYTKNAKLVVDTLKESR	failed
MALILTFLGKSGVARTKIAIAAAKLLASQGKRVLLAGLAEPVLPLLLEQTLTPDPQQIAPNLEVVQFQSSVLLERNWEEVKKLEAQYLRTPIIKEVYGQELVVLPGMDSALALNAIREYDASGKYDAIVYDGTGDAFTLRMLGLPESLSWYVRRFRQLFVNSDLGKTIAESPLIQPLISSFFNVNWTADNFAQPTNQVNNFLDKGKEALADPKRVAAFLVTTADPLEVVSVRYLWGSAQQIGLTIGGVIQVSSQTEGDLSAEFTPLSVTVVPDVTKGDWQPLIDALPNFVEQAEQAPKPITIDTHNRQVRLFLPGFDKKQVKLTQYGPEVTVEAGDQRRNIFLPPALSGRPITGAKFQNNYLIISFLEHHHHHH	not failed
MALKEAHQPQTQPLWHQLGLVLAKHFEPQDAKAVLQLLRQEHEERLQKISLEHLEQLAQYLLAEEPHVEPAGERELEAKARP	failed
MALLMSVKRQLYLWHRWLGIVACLFMALWFVSGVVMLYVGYPKLTPAERLAHLPALPAGCCAELPEHWAQQPLKALRLTSLGGRAHHLLELADGRRVILDAASGEPLARADAAWALANARQYAGEAGLAYLGTVDEDMWTHSRALDGDRPLHHVQVDDTAGTWLYLSSRTGEVVRDATAQERAWNWVGAWLHWLYPLRGGFGFDNGWRTLVIGLSLGATVMALLGMTVGILRLRLRKRYRSGSCSPYPGGWLRWHHIGGLLFGTVLVLWVFSGLMSMRPWGVTDSRSQLAPQALRQGPLRAMDIGQTVAQAMASLGREPGFNPVEIQWQRLGGDTFLVARNAAGDSRILEAGAPPARALSEQRLLTAARAMAAGVVVQANWQGHYDAYYFTRDAQSMYGFQSRPLPVLRLRFDDPASTWVYLDPASAEVVASHDARQRAGRWLFNLLHSWDLQPLLQRPVLREGLIIALSIGGLVVSLSGVVLGWRRLRRMTARVRG	failed
MALMTMVQALNRALDEEMAKDPRVVVLGEDVGKRGGVFLVTEGLLQKYGPDRVMDTPLSEAAIVGAALGMAAHGLRPVAEIQFADYIFPGFDQLVSQVAKLRYRSGGQFTAPLVVRMPSGGGVRGGHHHSQSPEAHFVHTAGLKVVAVSTPYDAKGLLKAAIRDEDPVVFLEPKRLYRSVKEEVPEEDYTLPIGKAALRREGKDLTLIGYGTVMPEVLQAAAELAKAGVSAEVLDLRTLMPWDYEAVMNSVAKTGRVVLVSDAPRHASFVSEVAATIAEDLLDMLLAPPIRVTGFDTPYPYAQDKLYLPTVTRILNAAKRALDY	not failed
